# B1: REGN5705 (antibody, V domains shown)
# VH: QVQLQESGPGLVKPSETLSLTCTVSGGSISSYYWSWIRQPPGKGLEWIGYIYYSGITHYNPSLKSRVTISVDTSKIQFSLKLSSVTAADTAVYYCARWGVRRDYYYYGMDVWGQGTTVTVSS
# VL: not shown
# B2: REGN5837 (bispecific antibody, human IgG4, V domains shown)
# VH 1: B1 VH
# VH 2: EVQLVQSGAEVKKPGESLKISCKGSGYNFATYWIAWVRQMPGKGLELMGIIYPGDSETTYNPSFQGQVTISADKSISNAYLQWSSLKASDTAMYYCARVGGYCSGTSCHNWFDPWGLGTLVTVSS
# VL: not shown
# notes: also called anti-CD22 x anti-CD28 bispecific antibody; CD22xCD28
# How the values were obtained:
# human CD28 [1] = molecular target: T1, human CD28 (human, UniProt P10747 19-220); experiment: cell-based or functional assay
# human CD28 [2] = molecular target: T1, human CD28; experiment: cell-based or functional assay; remark: listed apart in the source
# human CD28 [3] = molecular target: T1, human CD28; experiment: cell-based or functional assay; remark: listed apart in the source
# human CD28 [4] = molecular target: T1, human CD28; experiment: cell-based or functional assay; remark: listed apart in the source
# human CD22 = molecular target: T2, human CD22 (human, UniProt P20273 20-847); experiment: flow cytometry on Raji/CD80 and CD86 negative cells
# T2 construct: whole, on cells; also called hCD22
# Description: Briefly, human CD4+ T-cells, HEK293/hCD20, HEK293/hCD20/hCD22 and Raji/CD80 and CD86 negative cells were resuspended in staining buffer containing D-PBS+2% FBS. […] A negative control sample was included containing no antibody. Cells were washed once with cold staining buffer and incubated for 30-45 minutes with Allophycocyanin (APC) labeled anti-human secondary antibody. After incubation, cells were washed once with cold D-PBS buffer without FBS and incubated with LIVE/DEAD Fixable Green Dead Cell Stain (Invitrogen) according to manufacturer's instructions to discriminate between live and dead cells. Cells were then fixed in BD Cytofix Buffer according to manufacturer's instructions, washed, re-suspended in staining buffer, and analyzed by flow cytometry on an iQue Screener flow cytometer. For EC₅₀ determinations, geometric mean fluorescence intensity (MFI) values were analyzed using a four parameter logistic equation over a 9-point response curve using GraphPad Prism. Fold binding was calculated using the following equation:
binder,measurement,setting,value
B1,"EC50 [M], luciferase activity, reporter T-cells + HEK293/hCD20, 200 pM REGN1945 (no TCR stimulation)",human CD28 [1],6.23e-09 M
same,"EC50 [M], luciferase activity, reporter T-cells + HEK293/hCD20/hCD22, 200 pM REGN1945 (no TCR stimulation)",human CD28 [1],8.45e-09 M
same,"EC50 [M], luciferase activity, reporter T-cells + Raji/CD80 and CD86 negative, 200 pM REGN1945 (no TCR stimulation)",human CD28 [1],7.88e-09 M
same,"Max RLU, luciferase activity, reporter T-cells + HEK293/hCD20, 200 pM REGN1945 (no TCR stimulation)",human CD28 [1],25000 RLU
same,"Max RLU, luciferase activity, reporter T-cells + HEK293/hCD20/hCD22, 200 pM REGN1945 (no TCR stimulation)",human CD28 [1],25100 RLU
same,"Max RLU, luciferase activity, reporter T-cells + Raji/CD80 and CD86 negative, 200 pM REGN1945 (no TCR stimulation)",human CD28 [1],33200 RLU
same,"EC50 [M], luciferase activity, reporter T-cells + HEK293/hCD20, 200 pM REGN2281 (αCD20 x αCD3)",human CD28 [2],2.63e-10 M
same,"EC50 [M], luciferase activity, reporter T-cells + HEK293/hCD20/hCD22, 200 pM REGN2281 (αCD20 x αCD3)",human CD28 [2],7.7e-11 M
same,"EC50 [M], luciferase activity, reporter T-cells + Raji/CD80 and CD86 negative, 200 pM REGN2281 (αCD20 x αCD3)",human CD28 [2],4.33e-10 M
same,"Max RLU, luciferase activity, reporter T-cells + HEK293/hCD20, 200 pM REGN2281 (αCD20 x αCD3)",human CD28 [2],409000 RLU
same,"Max RLU, luciferase activity, reporter T-cells + HEK293/hCD20/hCD22, 200 pM REGN2281 (αCD20 x αCD3)",human CD28 [2],171000 RLU
same,"Max RLU, luciferase activity, reporter T-cells + Raji/CD80 and CD86 negative, 200 pM REGN2281 (αCD20 x αCD3)",human CD28 [2],569000 RLU
same,"EC50 [M], IL-2 release, primary human CD4+ T-cells + Raji/CD80 and CD86 negative, 2 nM REGN1945 (isotype control)",human CD28 [3],1.11e-10 M
same,"Max RFU, IL-2 release, primary human CD4+ T-cells + HEK293/hCD20, 2 nM REGN1945 (isotype control)",human CD28 [3],2290 RFU
same,"Max RFU, IL-2 release, primary human CD4+ T-cells + HEK293/hCD20/hCD22, 2 nM REGN1945 (isotype control)",human CD28 [3],2950 RFU
same,"Max RFU, IL-2 release, primary human CD4+ T-cells + Raji/CD80 and CD86 negative, 2 nM REGN1945 (isotype control)",human CD28 [3],49500 RFU
same,"EC50 [M], IL-2 release, primary human CD4+ T-cells + HEK293/hCD20, 2 nM REGN2281 (αCD20 x αCD3)",human CD28 [4],2.23e-09 M
same,"EC50 [M], IL-2 release, primary human CD4+ T-cells + Raji/CD80 and CD86 negative, 2 nM REGN2281 (αCD20 x αCD3)",human CD28 [4],4.51e-11 M
same,"Max RFU, IL-2 release, primary human CD4+ T-cells + HEK293/hCD20, 2 nM REGN2281 (αCD20 x αCD3)",human CD28 [4],68900 RFU
same,"Max RFU, IL-2 release, primary human CD4+ T-cells + HEK293/hCD20/hCD22, 2 nM REGN2281 (αCD20 x αCD3)",human CD28 [4],57400 RFU
same,"Max RFU, IL-2 release, primary human CD4+ T-cells + Raji/CD80 and CD86 negative, 2 nM REGN2281 (αCD20 x αCD3)",human CD28 [4],249000 RFU
B2,EC50,human CD22,9.76 nM

# — patent US20230174652A1 (Regeneron, published 2023)
